From patent US20200262885A1 (ANTAROS MEDICAL, published 2020)

B1: SEQ ID NO: 12 (peptide)
peptide: XSQGTFTSDXSKQXESRRAQEFIEWLLXGGPESGAPPPSX
modifications: Tza at 1; Tle at 10; Nle at 14; Bal at 28; Cys(VS-DO3A(Ga)) at 40; C-terminal amide

Columns and labels:
human glucagon receptor = human glucagon receptor (human, UniProt P47871 26-477); assay: cell-based or functional assay
human GLP-1 receptor = human GLP-1 receptor (human, UniProt P43220 24-463); assay: cell-based or functional assay

Molecule	EC50 hGLUC R (human glucagon receptor) [pM]	EC50 hGLP-1 R [pM] (human GLP-1 receptor)	EC50 hGLUC R [pM] (human glucagon receptor)
HSQGTFTSDYSKYLDSRRAQDFVQWLM^27-N-T-C(VS-DO3A)-NH2 (peptide)	0.7		
XSQGTFXSDLAKQXESRRAQDFIEWLLATGPESGAPPPSX (Tza at 1; Aib at 7; Nle at 14; Cys(VS-DO3A) at 40; C-terminal amide) [SEQ ID NO: 31]		1e+07	
XSQGTFXSDLSKQXESRRAKDFIEWLLATGPESGAPPPSX (Tza at 1; Aib at 7; Nle at 14; Cys(VS-DO3A) at 40; C-terminal amide) [SEQ ID NO: 51]		1e+07	
XSQGTFTSDYSKQLESRRAQEFIEWLLAGGPESGAPPPSX (Tza at 1; Cys(VS-DO3A(Ga)) at 40; C-terminal -OH) [SEQ ID NO: 80]		5130	0.7
B1		12900	0.7
XXQGTFTSDYSKQLDEQRAQEFIEWLLATGPESGAPPPSX (Tza at 1; D-Ser at 2; Cys(VS-DO3A(Ga)) at 40; C-terminal amide) [SEQ ID NO: 86]		115000	0.9
XSQGTFTSDYSKQLESRRAQEFIEWLLATGPESGAPPPSX (Tza at 1; Cys(VS-DO3A(Ga)) at 40; C-terminal amide) [SEQ ID NO: 34]		18800	0.8
XSQGTFTSDYSRQLESRRAQEFIEWLLATGPESGAPPPSX (Tza at 1; Lys(VS-DO3A(Ga)) at 40; C-terminal amide) [SEQ ID NO: 44]			0.8
XSQGTFTSDISKQXESRRAQEFIEWLLATGPESGAPPPSX (Tza at 1; Nle at 14; Cys(VS-DO3A(Ga)) at 40; C-terminal amide) [SEQ ID NO: 36]		65300	
XSQGTFTSDTSKQLESRRAQEFIEWLLATGPESGAPPPSX (Tza at 1; Cys(VS-DO3A(Ga)) at 40; C-terminal amide) [SEQ ID NO: 48]		297000	60.1
XSQGTFTSDYSKQLESRRAQEFIEWLLAGGPESGAPPPSX (Tza at 1; Cys(VS-DO3A(Ga)) at 40; C-terminal amide) [SEQ ID NO: 8]		4130	
XSQGTFXSDLSKQXESRRAQDFIEWLLATGPESGAPPPSX (Tza at 1; Aib at 7; Nle at 14; Cys(mal-NODAGA) at 40; C-terminal amide) [SEQ ID NO: 17]		1e+07	
XSQGTFTSDYSKQLESRRAQEFIEWLLAGGPESGAPPPSX (Tza at 1; Cys(mal-NOTA(Ga)) at 40; C-terminal amide) [SEQ ID NO: 9]		4200	1
XSQGTFTSDYSKQLESRRAQEFIEWLLAGGPESGAPPPSX (Tza at 1; Cys(mal-DOTA(Ga)) at 40; C-terminal amide) [SEQ ID NO: 7]		7530	
XSQGTFTSDTSKQLESRRAQEFIEWLLATGPESGAPPPSX (Tza at 1; Cys(VS-DO3A) at 40; C-terminal amide) [SEQ ID NO: 47]		1e+07	
XSQGTFTSDYSKQLESRRAQEFIEWLLAGGPESGAPPPSX (Tza at 1; Cys(mal-NODAGA(Ga)) at 40; C-terminal amide) [SEQ ID NO: 10]			0.9
XSQGTFXSDLSKQXESRRAQDFIEWLLATGPESGAPPPSX (Tza at 1; Aib at 7; Nle at 14; Cys(mal-NOTA) at 40; C-terminal amide) [SEQ ID NO: 16]		1e+07	
